We go through 40 sequences from the supplement of paper PMC7877785.

± gives the uncertainty stated by the source.

The data set can be described thus: self-splicing fitness, log relative to wild type (ln ratio); higher = more splicing; Tetrahymena group I intron in knt gene, E. coli kanamycin selection, DiMSum; sequences stand for … in CUCUCU…GGAGGGAAAAGUUAUCAGGCAUGCACCUGGUAGCUAGUCUUUAAACCAAUAGAUUGCAUCGGUUUAAAAGGCAAGACCGUCAAAUUGCGGGAAAGGGGUCAACAGCCGUUCAGUACCAAGUCUCAGGGGAAACUUUGAGAUGGCCUUGCAAAGGGUAUGGUAAUAAGCUGACGGACAUGGUCCUAACCACGCAGCCAAGUCCUAAGUCAACAGAUCUUCUGUUGAUAUGGAUGCAGUUCACAGACUAAAUGUCGGUCGGGGAAGAUGUAUUCUUCUCAUAAGAUAUAGUCGGACCUCUCCUUAAUGGGAGCUAGCGGAUGAAGUGAUGCAACACUGGAGCCGCUGGGAACUAAUUUGUAUGCGAAAGUAUAUUGAUUAGUUUUGGAGUACUCGUGGUCG
A digest of the protocol: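 The eight P1ex-region nucleotides of an intron in the knt kanamycin-resistance gene on pET-22b(+) were all randomised and the library put into E. coli BL21(DE3). Six replicate transformations were grown overnight at 37°C or 30°C on LB agar with or without 25 μg/mL kanamycin, together with 100 μg/mL carbenicillin, 50 μM IPTG and 0.2% rhamnose. Colonies were pooled and amplicon-sequenced on an Illumina HiSeq 2500. Fitness from DiMSum is the error-weighted combination of wild-type-normalised replicate fold changes, kanamycin over none.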

Regarding CCUAAGCAAUAUUACGUCUA, the “self-splicing fitness (ln)” value was -3.9 ± 0.24 (30 °C) and -3.48 ± 0.36 (37 °C).

Take GGUGAGCAAUAUUACGUCAU: the “self-splicing fitness (ln)” value (30 °C) is -3.97 ± 0.19 and the “self-splicing fitness (ln)” value (37 °C) is -2.76 ± 0.31.

For the sequence CUUUAGCAAUAUUACGCCGU, the “self-splicing fitness (ln)” value (30 °C) is -2.68 ± 0.41.

Consider ACUCAGCAAUAUUACGGCUA, for which the “self-splicing fitness (ln)” value by setting is: (30 °C) -0.553 ± 0.089; (37 °C) 0.149 ± 0.093.

In the case of AGGCAGCAAUAUUACGCUAA, the “self-splicing fitness (ln)” value (30 °C) was -1.05 ± 0.097 and the “self-splicing fitness (ln)” value (37 °C) was -0.682 ± 0.11.

On to ACCGAGCAAUAUUACGUUAA, for which the “self-splicing fitness (ln)” value was -3 ± 0.13 (30 °C) and -2.7 ± 0.14 (37 °C).

Take GGGUAGCAAUAUUACGCCGA: the “self-splicing fitness (ln)” value is, setting by setting: (30 °C) -0.784 ± 0.16; (37 °C) -0.0895 ± 0.11.

With GCCAAGCAAUAUUACGCUAA, the “self-splicing fitness (ln)” value by setting is: (30 °C) -0.682 ± 0.099; (37 °C) -1.37 ± 0.13.

For the sequence GUGCAGCAAUAUUACGAAAU, the “self-splicing fitness (ln)” value (30 °C) was -1.31 ± 0.084 and the “self-splicing fitness (ln)” value (37 °C) is -0.452 ± 0.097.

On to UAUCAGCAAUAUUACGAGGC, for which the “self-splicing fitness (ln)” value (37 °C) was -2.77 ± 0.37.

As to CGCGAGCAAUAUUACGAGGU, the “self-splicing fitness (ln)” value by setting is: (30 °C) -2.22 ± 0.25; (37 °C) -1.93 ± 0.23.

As for AAGUAGCAAUAUUACGGUUG, the “self-splicing fitness (ln)” value reads like this: (30 °C) -2.78 ± 0.1; (37 °C) -2.16 ± 0.11.

Turning to UCAUAGCAAUAUUACGUUCA, the “self-splicing fitness (ln)” value is -1.73 ± 0.1 (30 °C) and -1.57 ± 0.1 (37 °C).

Turning to UGUGAGCAAUAUUACGAUAG, the “self-splicing fitness (ln)” value by setting is: (30 °C) -2.74 ± 0.24; (37 °C) -0.644 ± 0.2.

For the sequence UCCGAGCAAUAUUACGUGGA, the “self-splicing fitness (ln)” value (30 °C) is -2.47 ± 0.17 and the “self-splicing fitness (ln)” value (37 °C) is -2.52 ± 0.19.

With GGGGAGCAAUAUUACGAUAC, the “self-splicing fitness (ln)” value (30 °C) is -2.37 ± 0.3 and the “self-splicing fitness (ln)” value (37 °C) is -0.552 ± 0.27.

In the case of UUGAAGCAAUAUUACGCUCU, the “self-splicing fitness (ln)” value is, setting by setting: (30 °C) -1.82 ± 0.12; (37 °C) -0.916 ± 0.12.

Regarding CUAGAGCAAUAUUACGCGUA, the “self-splicing fitness (ln)” value runs as follows: (30 °C) -3.78 ± 0.2; (37 °C) -2.97 ± 0.26.

With UAUAAGCAAUAUUACGCUGG, the “self-splicing fitness (ln)” value was -1.44 ± 0.13 (30 °C) and -0.93 ± 0.18 (37 °C).

Regarding CCCUAGCAAUAUUACGAUAU, the “self-splicing fitness (ln)” value is -2.92 ± 0.15 (30 °C) and -2.97 ± 0.27 (37 °C).

In the case of UUAAAGCAAUAUUACGAGCA, the “self-splicing fitness (ln)” value reads like this: (30 °C) -0.0954 ± 0.082; (37 °C) 0.177 ± 0.11.

On to ACCUAGCAAUAUUACGUGUA, for which the “self-splicing fitness (ln)” value is -2.84 ± 0.099 (30 °C) and -1.45 ± 0.075 (37 °C).

On to UUCUAGCAAUAUUACGCUGC, for which the “self-splicing fitness (ln)” value (37 °C) is -2.1 ± 0.38.

Regarding AGUAAGCAAUAUUACGCCAG, the “self-splicing fitness (ln)” value by setting is: (30 °C) -3.63 ± 0.33; (37 °C) -1.58 ± 0.29.

GGUCAGCAAUAUUACGCUCU: the “self-splicing fitness (ln)” value is, setting by setting: (30 °C) -1.58 ± 0.2; (37 °C) 0.397 ± 0.34.

Consider UGUAAGCAAUAUUACGCCUU, for which the “self-splicing fitness (ln)” value was -1.69 ± 0.35 (30 °C) and -1.5 ± 0.43 (37 °C).

AGAAAGCAAUAUUACGGCGC: the “self-splicing fitness (ln)” value was -0.688 ± 0.12 (30 °C) and -1.01 ± 0.15 (37 °C).

With CCGAAGCAAUAUUACGAGGU, the “self-splicing fitness (ln)” value by setting is: (30 °C) -3.79 ± 0.2; (37 °C) -2.9 ± 0.26.

On to CGCUAGCAAUAUUACGCAUG, for which the “self-splicing fitness (ln)” value by setting is: (30 °C) -2.04 ± 0.12; (37 °C) -1.24 ± 0.16.

For the sequence ACUUAGCAAUAUUACGUCAA, the “self-splicing fitness (ln)” value is -4.05 ± 0.33 (30 °C) and -3.36 ± 0.3 (37 °C).

On to AGCCAGCAAUAUUACGAUCA, for which the “self-splicing fitness (ln)” value (37 °C) is -2.69 ± 0.32.

On to GCAGAGCAAUAUUACGCCGC, for which, where the note is “30 °C”, the “self-splicing fitness (ln)” value was -2.91 ± 0.38.

Take AAGUAGCAAUAUUACGCGGA: the “self-splicing fitness (ln)” value runs as follows: (30 °C) -2.09 ± 0.18; (37 °C) -1.04 ± 0.15.

In the case of UUAUAGCAAUAUUACGGGGG, the “self-splicing fitness (ln)” value (30 °C) was -3.15 ± 0.4.

Take CAAAAGCAAUAUUACGGGAA: the “self-splicing fitness (ln)” value was -2.69 ± 0.23 (30 °C) and -1.13 ± 0.2 (37 °C).

In the case of CCACAGCAAUAUUACGACAC, the “self-splicing fitness (ln)” value reads like this: (30 °C) -3.68 ± 0.29; (37 °C) -1.5 ± 0.18.

For GAACAGCAAUAUUACGGAAG, the “self-splicing fitness (ln)” value by setting is: (30 °C) -3.32 ± 0.14; (37 °C) -1.73 ± 0.16.

As to CCAGAGCAAUAUUACGGGAC, the “self-splicing fitness (ln)” value (30 °C) was -2.81 ± 0.33.

As for AUAAAGCAAUAUUACGUAGA, the “self-splicing fitness (ln)” value reads like this: (30 °C) -2.36 ± 0.11; (37 °C) -0.832 ± 0.12.

As to AGCAAGCAAUAUUACGGCAA, the “self-splicing fitness (ln)” value by setting is: (30 °C) -0.272 ± 0.069; (37 °C) -0.342 ± 0.086.
